# In patent US20260242735A1 (UNIVERSIT T BASEL, published 2026):
# B1: Refmab #5 (antibody, V domains shown)
# VH: QVQLVQSGAEVKKPGASVKVSCKASGYTFTNYDINWVRQAPGQGLEWIGWIYPGDGSTKYNEKFKAKATLTADTSTSTAYMELRSLRSDDTAVYYCASGYEDAMDYWGQGTTVTVSS
# VL: DIQMTQSPSSLSASVGDRVTINCKASQDINSYLSWFQQKPGKAPKTLIYRANRLVDGVPSRFSGSGSGQDYTLTISSLQPEDFATYYCLQYDEFPLTFGGGTKVEIK
# notes: Full-length format is human IgG1 Fc silent (PG-LALA); also made as Fab; The alanine scan used IgG or Fab
# B2: Refmab #6 (antibody, V domains shown)
# VH: QVQLQQPGAEVVKPGASVKMSCKASGYTFTSYYIHWIKQTPGQGLEWVGVIYPGNDDISYNQKFQGKATLTADKSSTTAYMQLSSLTSEDSAVYYCAREVRLRYFDVWGQGTTVTVSS
# VL: EIVLTQSPGSLAVSPGERVTMSCKSSQSVFFSSSQKNYLAWYQQIPGQSPRLLIYWASTRESGVPDRFTGSGSGTDFTLTISSVQPEDLAIYYCHQYLSSRTFGQGTKLEIK
# notes: as for B1
# B3: Refmab #5 (antibody, V domains shown)
# VH: B1 VH
# VL: B1 VL
# notes: The alanine scan used IgG or Fab
# B4: Refmab #6 (antibody, V domains shown)
# VH: B2 VH
# VL: B2 VL
# notes: as for B3
# How the values were obtained:
# Test in all cases: alanine scan, flow cytometry, HEK293-T;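 note: antibody binding to each alanine-substituted CD33 mutant expressed transiently in HEK293-T, read as fluorescence minus background, mean of duplicates, relative to wild-type CD33 set as 100%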
# human CD33 T86A = human CD33 T86A (human, UniProt P20138 18-364)
# Method: (§1) An alanine scan on human CD33 was performed to the determine the residues on CD33 that are involved in binding to the antibodies investigated. […] Briefly, a mutation library of CD33 was created by high-throughput, site-directed mutagenesis. Each residue was individually mutated to alanine, with alanine codons mutated to serine. The mutant library was arrayed in 384-well microplates and transiently transfected into HEK293-T. Following transfection, cells were incubated with the indicated antibodies (IgG or Fab) at concentrations pre-determined using an independent immunofluorescence titration curve on wild type CD33. […] Binding of each antibody to each mutant clone was determined in duplicates. For each point, background fluorescence was subtracted from the raw data, which were then normalized to antibody reactivity with wild type CD33.
# (§2) Critical residues for antibody binding (outlined in dark grey) were residues whose mutations led to a binding of the test Abs of less than 20%. Additional secondary residues (outlined in light grey) were identified that led to a binding of the test Abs of between 20 and 40% as compared to the wild type CD33.
# human CD33 S54A = human CD33 S54A (human, UniProt P20138 18-364)
# Method: as §1, §2
# human CD33 F90A = human CD33 F90A (human, UniProt P20138 18-364)
# Method: as §1, §2
# human CD33 L78A = human CD33 L78A (human, UniProt P20138 18-364)
# Method: as §1, §2
# human CD33 Y116A = human CD33 Y116A (human, UniProt P20138 18-364)
# Method: as §1, §2
# human CD33 D70A = human CD33 D70A (human, UniProt P20138 18-364)
# Method: as §1, §2
# human CD33 F117A = human CD33 F117A (human, UniProt P20138 18-364)
# Method: as §1, §2
# human CD33 R98A = human CD33 R98A (human, UniProt P20138 18-364)
# Method: as §1, §2
# human CD33 Q80A = human CD33 Q80A (human, UniProt P20138 18-364)
# Method: as §1, §2
# human CD33 V106A = human CD33 V106A (human, UniProt P20138 18-364)
# Method: as §1, §2
# human CD33 V82A = human CD33 V82A (human, UniProt P20138 18-364)
# Method: as §1, §2
# human CD33 R62A = human CD33 R62A (human, UniProt P20138 18-364)
# Method: as §1, §2
# human CD33 R89A = human CD33 R89A (human, UniProt P20138 18-364)
# Method: as §1, §2
# human CD33 D112A = human CD33 D112A (human, UniProt P20138 18-364)
# Method: as §1, §2
# human CD33 S115A = human CD33 S115A (human, UniProt P20138 18-364)
# Method: as §1, §2
# human CD33 T75A = human CD33 T75A (human, UniProt P20138 18-364)
# Method: as §1, §2
# human CD33 D107A = human CD33 D107A (human, UniProt P20138 18-364)
# Method: as §1, §2
# human CD33 A108S = human CD33 A108S (human, UniProt P20138 18-364)
# Method: as §1, §2
# human CD33 S194A = molecular target: T1, human CD33 S194A (human, UniProt P20138 18-364)
# T1 construct: alanine scan clone, transfected HEK293-T
# Method: as §1, §2
# human CD33 H137A = molecular target: T2, human CD33 H137A (human, UniProt P20138 18-364)
# T2 construct: alanine scan clone, transfected HEK293-T
# Method: as §1, §2
# human CD33 G156A = molecular target: T3, human CD33 G156A (human, UniProt P20138 18-364)
# T3 construct: alanine scan clone, transfected HEK293-T
# Method: as §1, §2
# human CD33 T142A = molecular target: T4, human CD33 T142A (human, UniProt P20138 18-364)
# T4 construct: alanine scan clone, transfected HEK293-T
# Method: as §1, §2
# human CD33 T185A = molecular target: T5, human CD33 T185A (human, UniProt P20138 18-364)
# T5 construct: alanine scan clone, transfected HEK293-T
# Method: as §1, §2
# human CD33 C169A = molecular target: T6, human CD33 C169A (human, UniProt P20138 18-364)
# T6 construct: alanine scan clone, transfected HEK293-T
# Method: as §1, §2
# human CD33 C163A = molecular target: T7, human CD33 C163A (human, UniProt P20138 18-364)
# T7 construct: alanine scan clone, transfected HEK293-T
# Method: as §1, §2
# human CD33 W179A = molecular target: T8, human CD33 W179A (human, UniProt P20138 18-364)
# T8 construct: alanine scan clone, transfected HEK293-T
# Method: as §1, §2
# human CD33 I147A = molecular target: T9, human CD33 I147A (human, UniProt P20138 18-364)
# T9 construct: alanine scan clone, transfected HEK293-T
# Method: as §1, §2
# human CD33 L148A = molecular target: T10, human CD33 L148A (human, UniProt P20138 18-364)
# T10 construct: alanine scan clone, transfected HEK293-T
# Method: as §1, §2
# human CD33 V136A = molecular target: T11, human CD33 V136A (human, UniProt P20138 18-364)
# T11 construct: alanine scan clone, transfected HEK293-T
# Method: as §1, §2
# human CD33 E170A = molecular target: T12, human CD33 E170A (human, UniProt P20138 18-364)
# T12 construct: alanine scan clone, transfected HEK293-T
# Method: as §1, §2
# human CD33 S158A = molecular target: T13, human CD33 S158A (human, UniProt P20138 18-364)
# T13 construct: alanine scan clone, transfected HEK293-T
# Method: as §1, §2
# human CD33 K130A = molecular target: T14, human CD33 K130A (human, UniProt P20138 18-364)
# T14 construct: alanine scan clone, transfected HEK293-T
# Method: as §1, §2
# human CD33 E121A = molecular target: T15, human CD33 E121A (human, UniProt P20138 18-364)
# T15 construct: alanine scan clone, transfected HEK293-T
# Method: as §1, §2
# human CD33 S166A = molecular target: T16, human CD33 S166A (human, UniProt P20138 18-364)
# T16 construct: alanine scan clone, transfected HEK293-T
# Method: as §1, §2
# human CD33 T191A = molecular target: T17, human CD33 T191A (human, UniProt P20138 18-364)
# T17 construct: alanine scan clone, transfected HEK293-T
# Method: as §1, §2
# human CD33 E154A = molecular target: T18, human CD33 E154A (human, UniProt P20138 18-364)
# T18 construct: alanine scan clone, transfected HEK293-T
# T18 sequence (P20138 18-364 E154A limits assumed): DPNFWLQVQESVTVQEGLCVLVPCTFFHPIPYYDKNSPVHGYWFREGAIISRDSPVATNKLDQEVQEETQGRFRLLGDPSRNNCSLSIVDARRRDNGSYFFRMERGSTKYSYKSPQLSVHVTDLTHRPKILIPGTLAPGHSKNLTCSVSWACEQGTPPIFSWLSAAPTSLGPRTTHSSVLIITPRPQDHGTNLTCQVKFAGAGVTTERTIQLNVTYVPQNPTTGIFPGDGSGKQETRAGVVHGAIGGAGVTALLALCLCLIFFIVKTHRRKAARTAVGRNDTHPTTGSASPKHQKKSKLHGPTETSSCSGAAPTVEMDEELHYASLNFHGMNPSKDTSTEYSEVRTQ
# Method: as §1, §2
# T13 sequence (P20138 18-364 S158A limits assumed): as the sequence (P20138 18-364 E154A limits assumed) above, with A137E, S141A counted along it
# Chain of human CD33 F90A (P20138 18-364 F90A limits assumed): as the sequence (P20138 18-364 E154A limits assumed) above, with F73A, A137E counted along it
# Chain of human CD33 R89A (P20138 18-364 R89A limits assumed): as the sequence (P20138 18-364 E154A limits assumed) above, with R72A, A137E counted along it
# Chain of human CD33 A108S (P20138 18-364 A108S limits assumed): as the sequence (P20138 18-364 E154A limits assumed) above, with A91S, A137E counted along it
# T16 sequence (P20138 18-364 S166A limits assumed): as the sequence (P20138 18-364 E154A limits assumed) above, with A137E, S149A counted along it
# T5 sequence (P20138 18-364 T185A limits assumed): as the sequence (P20138 18-364 E154A limits assumed) above, with A137E, T168A counted along it
# T6 sequence (P20138 18-364 C169A limits assumed): as the sequence (P20138 18-364 E154A limits assumed) above, with A137E, C152A counted along it
# Chain of human CD33 D70A (P20138 18-364 D70A limits assumed): as the sequence (P20138 18-364 E154A limits assumed) above, with D53A, A137E counted along it
# T3 sequence (P20138 18-364 G156A limits assumed): as the sequence (P20138 18-364 E154A limits assumed) above, with A137E, G139A counted along it
# Chain of human CD33 R62A (P20138 18-364 R62A limits assumed): as the sequence (P20138 18-364 E154A limits assumed) above, with R45A, A137E counted along it
# Chain of human CD33 L78A (P20138 18-364 L78A limits assumed): as the sequence (P20138 18-364 E154A limits assumed) above, with L61A, A137E counted along it
# T1 sequence (P20138 18-364 S194A limits assumed): as the sequence (P20138 18-364 E154A limits assumed) above, with A137E, S177A counted along it
# Chain of human CD33 V106A (P20138 18-364 V106A limits assumed): as the sequence (P20138 18-364 E154A limits assumed) above, with V89A, A137E counted along it
# Chain of human CD33 R98A (P20138 18-364 R98A limits assumed): as the sequence (P20138 18-364 E154A limits assumed) above, with R81A, A137E counted along it
# Chain of human CD33 S54A (P20138 18-364 S54A limits assumed): as the sequence (P20138 18-364 E154A limits assumed) above, with S37A, A137E counted along it
# T11 sequence (P20138 18-364 V136A limits assumed): as the sequence (P20138 18-364 E154A limits assumed) above, with V119A, A137E counted along it
# T8 sequence (P20138 18-364 W179A limits assumed): as the sequence (P20138 18-364 E154A limits assumed) above, with A137E, W162A counted along it
# Chain of human CD33 T75A (P20138 18-364 T75A limits assumed): as the sequence (P20138 18-364 E154A limits assumed) above, with T58A, A137E counted along it
# Chain of human CD33 Q80A (P20138 18-364 Q80A limits assumed): as the sequence (P20138 18-364 E154A limits assumed) above, with Q63A, A137E counted along it
# T12 sequence (P20138 18-364 E170A limits assumed): as the sequence (P20138 18-364 E154A limits assumed) above, with A137E, E153A counted along it
# Chain of human CD33 D112A (P20138 18-364 D112A limits assumed): as the sequence (P20138 18-364 E154A limits assumed) above, with D95A, A137E counted along it
# Chain of human CD33 Y116A (P20138 18-364 Y116A limits assumed): as the sequence (P20138 18-364 E154A limits assumed) above, with Y99A, A137E counted along it
# T17 sequence (P20138 18-364 T191A limits assumed): as the sequence (P20138 18-364 E154A limits assumed) above, with A137E, T174A counted along it
# Chain of human CD33 S115A (P20138 18-364 S115A limits assumed): as the sequence (P20138 18-364 E154A limits assumed) above, with S98A, A137E counted along it
# T7 sequence (P20138 18-364 C163A limits assumed): as the sequence (P20138 18-364 E154A limits assumed) above, with A137E, C146A counted along it
# Chain of human CD33 D107A (P20138 18-364 D107A limits assumed): as the sequence (P20138 18-364 E154A limits assumed) above, with D90A, A137E counted along it
# T4 sequence (P20138 18-364 T142A limits assumed): as the sequence (P20138 18-364 E154A limits assumed) above, with T125A, A137E counted along it
# Chain of human CD33 F117A (P20138 18-364 F117A limits assumed): as the sequence (P20138 18-364 E154A limits assumed) above, with F100A, A137E counted along it
# Chain of human CD33 V82A (P20138 18-364 V82A limits assumed): as the sequence (P20138 18-364 E154A limits assumed) above, with V65A, A137E counted along it
# T10 sequence (P20138 18-364 L148A limits assumed): as the sequence (P20138 18-364 E154A limits assumed) above, with L131A, A137E counted along it
# T2 sequence (P20138 18-364 H137A limits assumed): as the sequence (P20138 18-364 E154A limits assumed) above, with H120A, A137E counted along it
# T14 sequence (P20138 18-364 K130A limits assumed): as the sequence (P20138 18-364 E154A limits assumed) above, with K113A, A137E counted along it
# Chain of human CD33 T86A (P20138 18-364 T86A limits assumed): as the sequence (P20138 18-364 E154A limits assumed) above, with T69A, A137E counted along it
# T9 sequence (P20138 18-364 I147A limits assumed): as the sequence (P20138 18-364 E154A limits assumed) above, with I130A, A137E counted along it
# T15 sequence (P20138 18-364 E121A limits assumed): as the sequence (P20138 18-364 E154A limits assumed) above, with E104A, A137E counted along it
Binder,Mean % WT Binding (human CD33 T86A) [% WT binding],Mean % WT Binding (human CD33 S54A) [% WT binding],Mean % WT Binding (human CD33 F90A) [% WT binding],Mean % WT Binding (human CD33 L78A) [% WT binding],Mean % WT Binding (human CD33 Y116A) [% WT binding],Mean % WT Binding (human CD33 D70A) [% WT binding],Mean % WT Binding (human CD33 F117A) [% WT binding],Mean % WT Binding (human CD33 R98A) [% WT binding],Mean % WT Binding (human CD33 Q80A) [% WT binding],Mean % WT Binding (human CD33 V106A) [% WT binding],Mean % WT Binding (human CD33 V82A) [% WT binding],Mean % WT Binding (human CD33 R62A) [% WT binding],Mean % WT Binding (human CD33 R89A) [% WT binding],Mean % WT Binding (human CD33 D112A) [% WT binding],Mean % WT Binding (human CD33 S115A) [% WT binding],Mean % WT Binding (human CD33 T75A) [% WT binding],Mean % WT Binding (human CD33 D107A) [% WT binding],Mean % WT Binding (human CD33 A108S) [% WT binding],Mean % WT Binding (human CD33 S194A) [% WT binding],Mean % WT Binding (human CD33 H137A) [% WT binding],other results
B1,124,146,123,99.3,16,112,113,134,151,106,122,123,137,61.2,74.6,120,119,105,–,–,–
B2,80.1,83.6,71.1,110,5,80.3,90.3,94.2,102,125,110,106,80.8,51.6,75.8,102,96.5,78.4,–,–,–
B3,–,–,–,–,–,–,–,–,–,–,–,–,–,–,–,–,–,–,90.4,120,Mean % WT Binding (human CD33 G156A): 92.3 % WT binding; Mean % WT Binding (human CD33 T142A): 101 % WT binding; Mean % WT Binding (human CD33 T185A): 94 % WT binding; Mean % WT Binding (human CD33 C169A): 101 % WT binding; Mean % WT Binding (human CD33 C163A): 62 % WT binding; Mean % WT Binding (human CD33 W179A): 133 % WT binding; Mean % WT Binding (human CD33 I147A): 77.2 % WT binding; Mean % WT Binding (human CD33 L148A): 113 % WT binding; Mean % WT Binding (human CD33 V136A): 104 % WT binding; Mean % WT Binding (human CD33 E170A): 110 % WT binding; Mean % WT Binding (human CD33 S158A): 99.2 % WT binding; Mean % WT Binding (human CD33 K130A): 271 % WT binding; Mean % WT Binding (human CD33 E121A): 105 % WT binding; Mean % WT Binding (human CD33 S166A): 114 % WT binding; Mean % WT Binding (human CD33 T191A): 115 % WT binding; Mean % WT Binding (human CD33 E154A): 112 % WT binding
B4,–,–,–,–,–,–,–,–,–,–,–,–,–,–,–,–,–,–,92.4,117,Mean % WT Binding (human CD33 G156A): 88.1 % WT binding; Mean % WT Binding (human CD33 T142A): 91.6 % WT binding; Mean % WT Binding (human CD33 T185A): 117 % WT binding; Mean % WT Binding (human CD33 C169A): 76.2 % WT binding; Mean % WT Binding (human CD33 C163A): 73.9 % WT binding; Mean % WT Binding (human CD33 W179A): 96.7 % WT binding; Mean % WT Binding (human CD33 I147A): 65.4 % WT binding; Mean % WT Binding (human CD33 L148A): 93.3 % WT binding; Mean % WT Binding (human CD33 V136A): 65.8 % WT binding; Mean % WT Binding (human CD33 E170A): 89.5 % WT binding; Mean % WT Binding (human CD33 S158A): 95.2 % WT binding; Mean % WT Binding (human CD33 K130A): 119 % WT binding; Mean % WT Binding (human CD33 E121A): 90.8 % WT binding; Mean % WT Binding (human CD33 S166A): 108 % WT binding; Mean % WT Binding (human CD33 T191A): 88.5 % WT binding; Mean % WT Binding (human CD33 E154A): 86.2 % WT binding
